Our source for the stoichiometry N values is PMC6609335.

By stoichiometry N is commonly meant a count of units in the complex or per binding partner.

The target in test [1] is Andes virus (ANDV) envelope glycoprotein Gc, wild type (Andes virus) (UniProt Q9E006). The test can be described thus: native gel or EMSA.
Test [2] has the same target. The test can be described thus: sucrose gradient sedimentation.

For “Andes virus (ANDV) envelope glycoprotein Gc, wild type (from UniProt Q9E006) (natural protein)”, the stoichiometry N in test [1] and in test [2] was 3 in each case.
